Source: patent US20040219558, “Novel compositions with polymerase activity” (MJ Bioworks Incorporated, published 2004)

Target: T1, Pfu DNA polymerase (Pyrococcus furiosus, UniProt P61875 SEQ:1-775)
T1 sequence: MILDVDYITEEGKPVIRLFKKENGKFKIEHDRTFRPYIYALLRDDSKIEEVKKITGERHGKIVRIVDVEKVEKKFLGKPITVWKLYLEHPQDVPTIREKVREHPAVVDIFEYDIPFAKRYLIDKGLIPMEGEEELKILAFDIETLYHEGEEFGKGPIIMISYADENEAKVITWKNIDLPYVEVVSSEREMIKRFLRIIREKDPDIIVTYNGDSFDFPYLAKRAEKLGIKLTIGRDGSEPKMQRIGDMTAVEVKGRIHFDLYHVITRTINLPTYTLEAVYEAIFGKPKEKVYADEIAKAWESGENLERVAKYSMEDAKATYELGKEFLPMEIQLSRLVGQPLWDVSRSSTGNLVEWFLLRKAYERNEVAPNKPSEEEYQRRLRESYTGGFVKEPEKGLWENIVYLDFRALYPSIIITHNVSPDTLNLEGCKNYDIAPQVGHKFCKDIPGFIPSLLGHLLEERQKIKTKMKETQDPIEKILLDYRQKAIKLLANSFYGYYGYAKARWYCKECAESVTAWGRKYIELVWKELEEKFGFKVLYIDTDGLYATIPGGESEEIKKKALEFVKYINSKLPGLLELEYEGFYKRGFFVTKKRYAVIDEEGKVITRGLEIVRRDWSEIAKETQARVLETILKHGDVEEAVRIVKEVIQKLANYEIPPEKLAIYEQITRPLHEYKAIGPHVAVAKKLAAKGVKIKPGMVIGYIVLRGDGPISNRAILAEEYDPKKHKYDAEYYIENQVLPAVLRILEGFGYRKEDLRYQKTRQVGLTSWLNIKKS
Assay: 3'-5' exonuclease fluorescence assay, 65 C; high exonuclease activity
Settings: tags: Stratagene (commercial); label: 5'-FAM, 3'-dabcyl; hairpin, 16 bp stem with 3' T:T* mismatch and 5' unpaired poly-T
Experimental: The oligonucleotide was combined with buffer and the enzyme and incubated in a real time detection instrument, the DNA Engine Opticon System (MJ Research, Inc.). This instrument excites the FAM and detects any fluorescence if present. In the absence of 3′ to 5′ exonuclease activity, there is only background fluorescence because FAM is quenched by DAB. However if the enzyme does have 3′ to 5′ exonuclease activity, the T:T* mismatch is recognized and the 3′-T* is removed. The DAB is released and will no longer quench the FAM fluorescence. The Opticon System will detect the increase in fluorescence with increasing time (readings were taken every 10 sec at 65° C.). The rate of fluorescence increase directly reflects the amount of 3′ to 5′ exonuclease activity. […] The results (FIG. 3) of this analysis are discussed below.

Question: Does TTTTTTGAGGTGTGTCCTACACAGCGGAGTGTAGGACACACCTCT (structured_DNA, 3' terminal T is amino-link dT carrying dabcyl) [FAM/dabcyl hairpin exonuclease substrate] bind?
Answer: binds
